# Experimental data taken from patent publication US20050064507.
# T1: GABRB2 peptide QKKSRLRRRASQLKI (SEQ ID NO:84) (not fully specified)
# T1 chain: QKKSRLRRRASQLKI
# T2: MARCKS peptide PSPSNETPKKKKKRFSFKKS (SEQ ID NO:157) (not fully specified)
# T2 chain: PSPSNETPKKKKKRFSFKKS
# T3: HERG peptide TELEGGFSRQRKRKLSFRRR (SEQ ID NO:140) (not fully specified)
# T3 chain: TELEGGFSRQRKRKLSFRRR
# T4: MARCKS peptide KKRFSFKKSFKLSGFSFKKN (SEQ ID NO:119) (not fully specified)
# T4 chain: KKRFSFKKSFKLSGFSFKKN
# T5: ribosomal protein S6 peptide AKRRRLSSLRASTSK (SEQ ID NO:120) (not fully specified)
# T5 chain: AKRRRLSSLRASTSK
# T6: MYBPC3 peptide LLKKRDSFRTPRDSKLE (SEQ ID NO:103) (not fully specified)
# T6 chain: LLKKRDSFRTPRDSKLE
# T7: NCF1 peptide GAPPRRSSIRNAH (SEQ ID NO:101) (not fully specified)
# T7 chain: GAPPRRSSIRNAH
# T8: ARHGAP4 peptide AGPLRKSSLKKGGRL (SEQ ID NO:98) (not fully specified)
# T8 chain: AGPLRKSSLKKGGRL
# T9: PLD1 peptide KYKAFIRIPIPTRRHTFRRQ (SEQ ID NO:161) (not fully specified)
# T9 chain: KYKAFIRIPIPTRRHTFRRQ
# T10: dag kinase zeta peptide RPQNTLKASKKKKRASFKRK (SEQ ID NO:118) (not fully specified)
# T10 chain: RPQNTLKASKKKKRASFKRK
# T11: AF15q14 peptide GFLNEPLSSKSQRRKSLKLK (SEQ ID NO:132) (not fully specified)
# T11 chain: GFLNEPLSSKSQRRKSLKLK
# T12: plectin peptide PLKEKKRERKTSSKSSVRKR (SEQ ID NO:125) (not fully specified)
# T12 chain: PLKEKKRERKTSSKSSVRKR
# T13: ERN1 peptide KLAVGRHSFSRRSGV (SEQ ID NO:94) (not fully specified)
# T13 chain: KLAVGRHSFSRRSGV
# T14: gravin peptide KKFFTQGWAGWRKKTSFRKP (SEQ ID NO:154) (not fully specified)
# T14 chain: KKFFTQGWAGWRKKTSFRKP
# T15: DGKZ peptide KKKKRASFKRKSSKKG (SEQ ID NO:77) (not fully specified)
# T15 chain: KKKKRASFKRKSSKKG
# T16: GABA A receptor beta 2 peptide ERHVAQKKSRLRRRASQLKI (SEQ ID NO:142) (not fully specified)
# T16 chain: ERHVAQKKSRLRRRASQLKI
# T17: cytohesin-2 peptide VDPFYEMLAARKKRISVKKK (SEQ ID NO:150) (not fully specified)
# T17 chain: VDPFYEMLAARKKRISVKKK
# T18: PSCD2 peptide AARKKRISVKKKQEQ (SEQ ID NO:93) (not fully specified)
# T18 chain: AARKKRISVKKKQEQ
# T19: ankyrin R peptide DLIEGRKGAQIVKRASLKRG (SEQ ID NO:152) (not fully specified)
# T19 chain: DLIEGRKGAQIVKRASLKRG
# T20: KCNH2 peptide RQRKRKLSFRRRTDKD (SEQ ID NO:86) (not fully specified)
# T20 chain: RQRKRKLSFRRRTDKD
# T21: ERN1 peptide ISDFGLAKKLAVGRHSFSRR (SEQ ID NO:145) (not fully specified)
# T21 chain: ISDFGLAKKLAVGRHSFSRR
# T22: NIK peptide TEGKMARVAWKGKRRSKARK (SEQ ID NO:164) (not fully specified)
# T22 chain: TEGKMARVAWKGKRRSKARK
# T23: ANK1 peptide AQIVKRASLKRGKQ (SEQ ID NO:90) (not fully specified)
# T23 chain: AQIVKRASLKRGKQ
# T24: fit1 peptide VQMTWSYPDEKNKRASVRRR (SEQ ID NO:158) (not fully specified)
# T24 chain: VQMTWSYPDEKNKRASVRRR
# T25: NEURL peptide ALRRPSLRREADD (SEQ ID NO:105) (not fully specified)
# T25 chain: ALRRPSLRREADD
# T26: ARHGAP6 peptide DGQKRKKSLRKKLD (SEQ ID NO:92) (not fully specified)
# T26 chain: DGQKRKKSLRKKLD
# T27: SDPR peptide EKIKRSSLKKVDSLKK (SEQ ID NO:104) (not fully specified)
# T27 chain: EKIKRSSLKKVDSLKK
# T28: AKAP12 peptide AGWRKKTSFRKPKED (SEQ ID NO:99) (not fully specified)
# T28 chain: AGWRKKTSFRKPKED
# T29: PSCDBP peptide LSSMFGTLPRKSRKGSVRKQ (SEQ ID NO:144) (not fully specified)
# T29 chain: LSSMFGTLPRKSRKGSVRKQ
# T30: beta adducin peptide PSKSPSKKKKKFRTPSFLKK (SEQ ID NO:137) (not fully specified)
# T30 chain: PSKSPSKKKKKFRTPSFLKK
# T31: nuclear RNA export factor 3 peptide VRYTPYTISPYNRKGSFRKQ (SEQ ID NO:143) (not fully specified)
# T31 chain: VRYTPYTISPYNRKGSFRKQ
# Legend:
# [1] = target: T1, GABRB2 peptide QKKSRLRRRASQLKI (SEQ ID …)
# [2] = target: T2, MARCKS peptide PSPSNETPKKKKKRFSFKKS …
# [3] = target: T3, HERG peptide TELEGGFSRQRKRKLSFRRR (SEQ …)
# [4] = target: T4, MARCKS peptide KKRFSFKKSFKLSGFSFKKN …
# [5] = target: T5, ribosomal protein S6 peptide …
# [6] = target: T6, MYBPC3 peptide LLKKRDSFRTPRDSKLE (SEQ …)
# [7] = target: T7, NCF1 peptide GAPPRRSSIRNAH (SEQ ID …)
# [8] = target: T8, ARHGAP4 peptide AGPLRKSSLKKGGRL (SEQ ID …)
# [9] = target: T9, PLD1 peptide KYKAFIRIPIPTRRHTFRRQ (SEQ …)
# [10] = target: T10, dag kinase zeta peptide …
# [11] = target: T11, AF15q14 peptide GFLNEPLSSKSQRRKSLKLK …
# [12] = target: T12, plectin peptide PLKEKKRERKTSSKSSVRKR …
# [13] = target: T13, ERN1 peptide KLAVGRHSFSRRSGV (SEQ ID …)
# [14] = target: T14, gravin peptide KKFFTQGWAGWRKKTSFRKP …
# [15] = target: T15, DGKZ peptide KKKKRASFKRKSSKKG (SEQ ID …)
# [16] = target: T16, GABA A receptor beta 2 peptide …
# [17] = target: T17, cytohesin-2 peptide …
# [18] = target: T18, PSCD2 peptide AARKKRISVKKKQEQ (SEQ ID …)
# [19] = target: T19, ankyrin R peptide DLIEGRKGAQIVKRASLKRG …
# [20] = target: T20, KCNH2 peptide RQRKRKLSFRRRTDKD (SEQ ID …)
# [21] = target: T21, ERN1 peptide ISDFGLAKKLAVGRHSFSRR (SEQ …)
# [22] = target: T22, NIK peptide TEGKMARVAWKGKRRSKARK (SEQ …)
# [23] = target: T23, ANK1 peptide AQIVKRASLKRGKQ (SEQ ID …)
# [24] = target: T24, fit1 peptide VQMTWSYPDEKNKRASVRRR (SEQ …)
# [25] = target: T25, NEURL peptide ALRRPSLRREADD (SEQ ID …)
# [26] = target: T26, ARHGAP6 peptide DGQKRKKSLRKKLD (SEQ ID …)
# [27] = target: T27, SDPR peptide EKIKRSSLKKVDSLKK (SEQ ID …)
# [28] = target: T28, AKAP12 peptide AGWRKKTSFRKPKED (SEQ ID …)
# [29] = target: T29, PSCDBP peptide LSSMFGTLPRKSRKGSVRKQ …
# [30] = target: T30, beta adducin peptide …
# [31] = target: T31, nuclear RNA export factor 3 peptide …
protein,measurement,setting,value
PKC-epsilon (protein) MVVFNGLLKIKICEAVSLKPTAWSLRHAVGPRPQTFLLDPYIALNVDDSRIGQTATKQKTNSPAWHDEFVTDVCNGRKIELAVFHDAPIGYDDFVANCTIQFEELLQNGSRHFEDWIDLEPEGRVYVIIDLSGSSGEAPKDNEERVFRERMRPRKRQGAVRRRVHQVNGHKFMATYLRQPTYCSHCRDFIWGVIGKQGYQCQVCTCVVHKRCHELIITKCAGLKKQETPDQVGSQRFSVNMPHKFGIHNYKVPTFCDHCGSLLWGLLRQGLQCKVCKMNVHRRCETNVAPNCGVDARGIAKVLADLGVTPDKITNSGQRRKKLIAGAESPQPASGSSPSEEDRSKSAPTSPCDQEIKELENNIRKALSFDNRGEEHRAASSPDGQLMSPGENGEVRQGQAKRLGLDEFNFIKVLGKGSFGKVMLAELKGKDEVYAVKVLKKDVILQDDDVDCTMTEKRILALARKHPYLTQLYCCFQTKDRLFFVMEYVNGGDLMFQIQRSRKFDEPRSRFYAAEVTSALMFLHQHGVIYRDLKLDNILLDAEGHCKLADFGMCKEGILNGVTTTTFCGTPDYIAPEILQELEYGPSVDWWALGVLMYEMMAGQPPFEADNEDDLFESILHDDVLYPVWLSKEAVSILKAFMTKNPHKRLGCVASQNGEDAIKQHPFFKEIDWVLLEQKKIKPPFKPRIKTKRDVNNFDQDFTREEPVLTLVDEAIVKQINQEEFKGFSYFGEDLMP,in vitro phosphorylation (% of best substrate),[1],52
same,"in vitro phosphorylation, 1 uM peptide (% of best substrate)",[2],12
same,"in vitro phosphorylation, 1 uM peptide (% of best substrate)",[3],27
same,"in vitro phosphorylation, 1 uM peptide (% of best substrate)",[4],81
same,"in vitro phosphorylation, 1 uM peptide (% of best substrate)",[5],56
same,in vitro phosphorylation (% of best substrate),[6],21
same,in vitro phosphorylation (% of best substrate),[7],19
same,in vitro phosphorylation (% of best substrate),[8],34
same,"in vitro phosphorylation, 1 uM peptide (% of best substrate)",[9],21
same,"in vitro phosphorylation, 1 uM peptide (% of best substrate)",[10],89
same,"in vitro phosphorylation, 1 uM peptide (% of best substrate)",[11],47
same,"in vitro phosphorylation, 1 uM peptide (% of best substrate)",[12],48
same,in vitro phosphorylation (% of best substrate),[13],13
same,"in vitro phosphorylation, 1 uM peptide (% of best substrate)",[14],29
same,in vitro phosphorylation (% of best substrate),[15],71
same,"in vitro phosphorylation, 1 uM peptide (% of best substrate)",[16],28
same,"in vitro phosphorylation, 1 uM peptide (% of best substrate)",[17],20
same,in vitro phosphorylation (% of best substrate),[18],40
same,"in vitro phosphorylation, 1 uM peptide (% of best substrate)",[19],25
same,in vitro phosphorylation (% of best substrate),[20],63
same,"in vitro phosphorylation, 1 uM peptide (% of best substrate)",[21],26
same,"in vitro phosphorylation, 1 uM peptide (% of best substrate)",[22],12
same,in vitro phosphorylation (% of best substrate),[23],49
same,"in vitro phosphorylation, 1 uM peptide (% of best substrate)",[24],11
same,in vitro phosphorylation (% of best substrate),[25],29
same,in vitro phosphorylation (% of best substrate),[26],51
same,in vitro phosphorylation (% of best substrate),[27],17
same,in vitro phosphorylation (% of best substrate),[28],27
same,"in vitro phosphorylation, 1 uM peptide (% of best substrate)",[29],24
same,"in vitro phosphorylation, 1 uM peptide (% of best substrate)",[30],32
same,"in vitro phosphorylation, 1 uM peptide (% of best substrate)",[31],21
